The values that follow come from PMC8743172 (Current Research in Structural Biology, 2021).

Like-named read-outs stand apart in the source and are kept apart here. Square brackets hold non-standard residues; d marks the D form. Primed or numbered codes have the meaning given here. Ends that are not written are not given here. FITC′ = fluorescein isothiocyanate fluorescent label; TAMRA = tetramethylrhodamine fluorescent label; Cy5 = cyanine-5 fluorescent label; pS = N[C@@H](COP(=O)(O)O)C(=O)O

First the molecules themselves.
B1: FITC-labelled 13-mer Amot-p130 peptide (peptide)
peptide: {FITC′}-GHVRSL[pS]ERLMQM
modifications: also: phosphoserine at 175 (S5 or S7)
B3: 14-3-3η (natural protein, human, UniProt Q04917 1-246, looked up)
chain: MGDREQLLQRARLAEQAERYDDMASAMKAVTELNEPLSNEDRNLLSVAYKNVVGARRSSWRVISSIEQKTMADGNEKKLEKVKAYREKIEKELETVCNDVLSLLDKFLIKNCNDFQYESKVFYLKMKGDYYRYLAEVASGEKKNSVVEASEAAYKEAFEISKEQMQPTHPIRLGLALNFSVFYYEIQNAPEQACLLAKQAFDDAIAELDTLNEDSYKDSTLIMQLLRDNLTLWTSDQQDEEAGEGN

One experiment concerns apo 14-3-3. The following applies: ref Andrei et al., 2018; cited from earlier work.
In another experiment the target is T1, 14-3-3β (human, UniProt P31946 1-246).
T1 sequence (looked up): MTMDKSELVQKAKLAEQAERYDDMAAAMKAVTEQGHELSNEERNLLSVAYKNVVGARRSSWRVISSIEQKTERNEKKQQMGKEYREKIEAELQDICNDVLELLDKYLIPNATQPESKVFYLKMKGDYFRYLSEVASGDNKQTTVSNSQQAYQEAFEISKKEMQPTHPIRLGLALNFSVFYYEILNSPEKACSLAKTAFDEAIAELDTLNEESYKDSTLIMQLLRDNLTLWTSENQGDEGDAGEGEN
The experiment in a line: fluorescence polarisation. (Fluorescence polarisation rises when a labelled molecule tumbles more slowly, as on binding a larger partner.)

For another experiment, the target named is T2, 14-3-3ζ (human, UniProt P63104 1-245).
T2 sequence (looked up): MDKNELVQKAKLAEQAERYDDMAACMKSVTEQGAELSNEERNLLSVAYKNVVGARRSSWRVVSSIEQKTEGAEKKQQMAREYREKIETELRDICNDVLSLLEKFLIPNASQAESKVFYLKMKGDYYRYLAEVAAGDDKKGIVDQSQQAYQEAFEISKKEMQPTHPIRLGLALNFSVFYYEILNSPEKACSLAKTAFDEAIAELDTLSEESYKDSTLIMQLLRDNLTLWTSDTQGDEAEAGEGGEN
The experiment in a line: fluorescence polarisation.

The target in another experiment is T3, 14-3-3τ (human, UniProt P27348 1-245).
T3 sequence (looked up): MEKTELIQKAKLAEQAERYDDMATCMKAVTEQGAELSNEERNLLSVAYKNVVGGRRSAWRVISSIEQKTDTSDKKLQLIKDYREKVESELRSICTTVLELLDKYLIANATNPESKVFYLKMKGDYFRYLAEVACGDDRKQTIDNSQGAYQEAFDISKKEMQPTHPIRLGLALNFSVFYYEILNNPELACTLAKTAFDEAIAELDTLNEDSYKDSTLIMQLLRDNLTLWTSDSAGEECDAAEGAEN
The experiment in a line: fluorescence polarisation.

A further experiment has as its target T4, 14-3-3ε (human, UniProt P62258 1-255).
T4 sequence (looked up): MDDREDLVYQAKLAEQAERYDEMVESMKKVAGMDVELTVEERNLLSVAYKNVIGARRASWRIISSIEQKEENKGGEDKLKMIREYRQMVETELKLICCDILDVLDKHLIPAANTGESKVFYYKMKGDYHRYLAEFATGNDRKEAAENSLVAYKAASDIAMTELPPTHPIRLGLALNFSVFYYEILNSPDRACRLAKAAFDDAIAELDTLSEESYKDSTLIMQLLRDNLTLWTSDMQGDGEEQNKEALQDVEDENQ
The experiment can be described thus: fluorescence polarisation.

In experiment [1] the target is T5, 14-3-3σΔC (C-terminally truncated after T231) (human, UniProt P31947 1-231).
T5 sequence (looked up): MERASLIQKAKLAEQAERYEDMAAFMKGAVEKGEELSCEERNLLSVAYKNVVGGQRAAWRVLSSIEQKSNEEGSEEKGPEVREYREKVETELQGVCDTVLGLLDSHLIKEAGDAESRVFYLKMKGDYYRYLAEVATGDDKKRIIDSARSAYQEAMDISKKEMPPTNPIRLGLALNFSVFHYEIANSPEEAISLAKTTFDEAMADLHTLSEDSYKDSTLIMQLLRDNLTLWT
The experiment in a line: crystal structure.

Experiment [2] concerns the target T6, Cy5 labelled 13-mer Amot-p130 peptide (also: phosphoserine at 175 (S5 or S7)).
T6 peptide: Cy5-GHVRSL[pS]ERLMQM
The experiment can be described thus: MST.

Experiment [3] has as its target B1. The experiment in a line: fluorescence polarisation.
The target in the experiment “14-3-3η” is B3. The experiment in a line: fluorescence polarisation.
Experiment [4] addresses T5, 14-3-3σΔC (C-terminally truncated after …). The experiment in a line: crystal structure. The source holds these as a separate data set.

`C=CC(C)(C)OC[C@H]1O[C@H](O[C@@H]2C3=C([C@H](C)CNC(C)=O)C[C@H](O)[C@]3(C)/C=C3/[C@@H](COC)CC[C@H]3[C@@H](C)[C@H]2O)[C@H](O)[C@@H](O)[C@@H]1O` [FC-NAc]: the “affinity for the apo 14-3-3” value with apo 14-3-3 is on record as “higher affinity for the apo 14-3-3”. Take B1: the binding result with 14-3-3β, with 14-3-3ζ, in the experiment with 14-3-3τ and in the experiment with 14-3-3ε was “binds” each time.

B2: 13-mer Amot-p130 peptide (for crystallography) (peptide)
peptide: GHVRSL[pS]ERLMQM
modifications: not fully specified (C-terminus)
Turning to B2, the binding result in experiment [1] is listed as “binds”. B3: the “fold stabilisation with 1 mM fragment 09 or 22 against the DMSO control” value in experiment [2] and in experiment [3] was 2 fold in each case.

B4: TAMRA-labelled 13-mer Amot-p130 peptide (peptide)
peptide: {TAMRA}-GHVRSL[pS]ERLMQM
modifications: also: phosphoserine at 175 (S5 or S7)
In the case of B4, the binding result with 14-3-3η is listed as “binds”.

B5: 20-mer Amot-p130 peptide (for crystallography) (peptide)
peptide: GHVRSL[pS]ERLMQMSLATSGV
modifications: not fully specified (C-terminus)
For B5, the binding result in experiment [4] is reported as “binds”.
